In patent publication US8093030B2, “Thermostable viral polymerases and methods of use” (Lucigen Corporation, priority 2005, dated 2012):
Where a chain is given by its changes, count along the chain named. Names may count otherwise.

Assays:
[1] = test system: M13 primer on M13mp18 ssDNA; assay: Primer extension detected by Pico Green with chain terminating analogs; assay type: biochemical; details: control without chain terminating analogs, 2 mM each dNTP
Protocol: In a second experiment, incorporation was tested by detection of DNA synthesis using a double-strand specific fluorescent dye, Pico Green (Invitrogen). […] In separate reactions, a mix of ddGTP, ddATP ddTTP, ddCTP (2 mM each) and a mix of the four acyNTPs (2 mM each) were added to extension reactions followed by DNA polymerase. As a control, identical reactions without added chain terminating analogs were also performed. Polymerase 3173 mutant D49A was tested and, for comparison, T7 DNA polymerase, which incorporates ddNTPs with very low discrimination, and Klenow fragment of E. coli polymerase I and VENTR DNA polymerase (New England Biolabs), both of which have a higher discrimination, were also tested. Extension of the primer was detected by fluorescence of Pico Green dye.

[2] = test system: radiolabeled polynucleotide; assay: Exonuclease assay (radioactive nucleotide release); assay type: biochemical
Protocol: For example, polynucleotides can be synthesized such that a detectable proportion of the nucleotides are radioactively labeled. These polynucleotides are incubated in an appropriate buffer in the presence of the polypeptide to be tested. After incubation, the polynucleotide is precipitated and exonuclease activity is detectable as radioactive counts due to free nucleotides in the supernatant.
The presence of a 3′-5′ exonuclease domain in the 3173 DNA polymerase was detected by reduction in molecular weight of a 5′ fluorescently labeled oligonucleotide. Upon incubation of the primer/template complex described in Example 5, under the same conditions, a portion of the primer product was reduced in apparent molecular weight. This reduction in size was detected by capillary electrophoresis using an ABI 310 Genetic Analyzer operated in GeneScan mode. The presence of an exonuclease domain was confirmed by sequence alignment and by incubation of the polymerase with a radiolabeled polynucleotide, followed by digestion and precipitation with trichloroacetic acid. Radioactivity due to free nucleotides in the supernatant was measured.
An exonuclease assay was performed to confirm that exonuclease activity was eliminated in the mutants. […]
Exonuclease activity for polymerase 3173 was determined as described in Example 7.

[3] = test system: primed single stranded M13 DNA; assay: Binding constant (Km) for primed template; assay type: biochemical; details: nucleotides in excess, 70° C.
Protocol: The binding constant (reported as Km, the concentration at which the reaction rate is 50% maximal) for nucleotides by polymerase 3173 was determined using activated calf thymus DNA as a template. Reactions were maintained under pseudo-first order conditions using a molar excess of all components, with the exceptions of the enzyme and the nucleotides. Reactions (50 μl) were incubated at 70° C. and samples (5 μl each) were removed at varying time points and spotted on DE81 paper. Activity was determined as described in Example 6. The binding constant for primed template was similarly determined except that nucleotides were supplied in excess and the concentration of primed template (primed single stranded M13 DNA) was varied.

[4] = test system: plasmid and random primers; assay: Strand displacement activity in rolling circle amplification (RCA) with random primers; assay type: biochemical
Protocol: As used herein, “strand displacement activity” refers to the ability of a polymerase to displace downstream DNA encountered during synthesis. Protocols such as, e.g., strand displacement amplification (SDA) may exploit this activity. Strand displacement activity may be determined using primer-initiated synthesis. A polymerase of the invention is incubated in the presence of a plasmid and random primers. A polymerase of the invention may extend the primer the complete circumference of the plasmid at which point the 5′ end of the primer is encountered. If the polymerase is capable of strand displacement activity, the nascent strand of DNA is displaced and the polymerase continues DNA synthesis. The presence of strand displacement activity results in a product having a molecular weight greater than the original template. The higher molecular weight product can be easily detected by agarose gel electrophoresis.
Strand displacement activity was determined using primer-initiated synthesis in a rolling circle amplification (RCA) protocol. Briefly, polymerase 3173 was incubated in the presence of a plasmid and random primers. Polymerase 3173 extended the primer the complete circumference of the plasmid at which point the 5′ end of the primer was encountered.

Poly rA: Oligo dT = assay: Reverse transcriptase activity by incorporation of radiolabeled dTTP; assay type: biochemical
Protocol: Reverse transcriptase activity was detected by incorporation of radiolabeled deoxyribonucleotide triphosphates into polydeoxyribonucleotides using a ribonucleic acid template. […] Incorporation of dTTP was detected as radioactive counts adhering to DE81 filter paper. Similar reverse transcription reactions were measured by incorporation of labeled dTTP on a poly rA template using 1 unit of Tth (Promega) and 1 unit MMLV reverse transcriptase (Novagen) according to the respective manufacturers' recommended conditions.

[5] = test system: single-stranded M13mp18 and double stranded pUC19 plasmid DNA; assay: High temperature isothermal RCA amplification with random decamer primers; assay type: biochemical; details: both templates
Protocol: Five units of polymerase 3173 was used to amplify one nanogram each of single-stranded M13mp18 and double stranded pUC19 plasmid DNA. […] Either 0.5 μM or 5 μM of random decamer primers were added to each template. Reactions were incubated at 95° C. prior to addition of enzyme, then 16 hours at 55° C. with enzyme. One fiftieth of each reaction was resolved on a 1% agarose gel.
Results are shown in FIG. 5, Panel A. Lanes are as follows: five units of 3173 wild type DNA polymerase used to amplify M13mp18 single-stranded DNA template (lanes 2 and 3) and pUC19 double-stranded DNA (lanes 4 and 5) or no template (lane 6). Random ten nucleotide oligomer primers are added in the concentrations of 5 μM (lanes 2, 4 and 6) or 0.5 μM (lanes 3 and 5).
To determine if the amplification was specific for the template DNA, one μl of the amplification product of the positive pUC19 reaction was tested in a PCR reaction using primers specific for a 1 kb sequence in the bla gene of the original plasmid template. As a negative control, a reaction lacking deoxynucleotides was analyzed using PCR. As a positive control, the 1 kb sequence was amplified directly from 1 ng of pUC19.

lacIq gene = assay: Fidelity assay, lacIq amplification with blue/white colony count; details: 25 PCR cycles, target size 349 for lacIq
Protocol: Fidelity was determined by a modification of the standard assay in which the lacIq gene is amplified by the DNA polymerase of interest and inserted into a plasmid containing genes encoding a functional lacZ alpha peptide and a selectable marker. Primers of SEQ ID NOS:28 and 29 were used to amplify a sequence containing both the lacIq and the KanR gene. […] Normally a white phenotype is seen for clone containing this construct when plated on X-Gal. Mutation of the lacIq results in a blue phenotype for the colonies when plated on X-Gal.
For high fidelity PCR amplification, five units of the wild-type (proofreading) DNA polymerase 3173 (SEQ ID NO: 6) was tested using the following mix (50 mM Tris HCl (pH 9.0 at 25° C.), 50 mM KCl, 10 mM (NH4)2SO4, 1.5 mM MgSO4, 1.5 mM MgCl2, 0.1% triton-X100, 250 mM ectoine and 0.2 mM each of dGTP, dATP, dTTP and dCTP. Opposing primers of SEQ ID 28 and 29 (1 μM each) amplified the expected 2 k kb product from template SEQ ID 30 (10 ng). After thermal cycling (94° C. for 1 minute, 25 cycles of (94° C. for 15 seconds, 60° C. for 15 seconds, 72° C. for 2.5 minutes) and 72° C. 7 minutes), reaction products were quantified to determine “fold amplification,” (see below) using agarose gel electrophoresis. Both primers contain Eco109I sites. The PCR product was digested with Eco109I and inserted into the Eco109I site of pUC19. 10 G cells transformed by the construct were plated on LB plates containing ampicillin (100 μg/ml), kanamycin (30 μg/ml) and X-Gal (50 μg/ml). Blue and white colony counts were used for the fidelity determinations.

[6] = test system: plasmid DNA nicked with N.Bst NB1; assay: Isothermal RCA in the absence of added primers (nick-initiated synthesis)
Protocol: Suitably, nick-initiated polymerase activity can be detected, e.g., on an agarose gel, as an increase in the amount of DNA product due to synthesis in the presence of a nicking enzyme as compared to minimal or no product synthesized when nicking enzyme is absent from the reaction.
Reactions containing 10 ng of plasmid DNA, 20 mM Tris-HCl, 10 mM (NH4)2SO4, 10 mM KCl, 2 mM MgSO4, 0.1% Triton X-100, pH 8.8 at 25° C., and 200 μM each of dGTP, dATP, dTTP and dCTP were incubated for 2 hours at 56° C. with or without 10 units of nick-generating enzyme N.Bst NB1 (NEB) and either no DNA polymerase, 200 units of 3173 wt or 400 units of 3173 (D49A) mutant enzyme. Parallel reactions were performed in the absence of nicking enzyme, polymerase or both. Amplification products were analyzed by agarose gel electrophoresis.

[7] = test system: ROX-labeled primer annealed to single-stranded M13mp18 DNA; assay: Fluorescent (ROX) primer extension in presence of ddNTPs; assay type: biochemical
Protocol: In separate reactions, ddGTP, ddATP, ddTTP, and ddCTP were added to the above mix in concentrations of 50, 500 and 5000 μM each. Five units of polymerase 3173 mutant D49A were added and the reactions were incubated for 30 minutes at 70° C. Extension of the primer was detected by the ABI 310 Genetic Analyzer in Gene Scan mode.

activated ct DNA = assay: Inhibition of radioactive nucleotide incorporation by chain terminating analogs; assay type: biochemical; details: control, 40 μM each dNTP, 70° C. 30 min
Protocol: Based on alignment with family A DNA polymerases, amino acid 418 of the polymerase 3173 mutant D49A was mutated from phenylalanine to tyrosine. The mutant protein was expressed and the cells lysed and heat-treated at 70° C. for 10 minutes to inactivate host proteins. The polymerase 3173 mutant D49A/F418Y was tested for inhibition of radioactive nucleotide incorporation using chain terminating nucleotide analogs in the same mix as unlabeled deoxynucleotides. […] In separate reactions both the D49A/F418Y mutant and purified polymerase 3173 mutant D49A were tested for inhibition by 4 mM each of ddNTPs and 4 mM each acycloNTPs. A control with no chain terminators was included. 50 μl reactions were incubated at 70° C. for 30 min. 15 μl of each reaction was spotted on DE81 paper, washed and counted, and units of activity were determined as described in Example 6. The degree of inhibition due to incorporation of dideoxy- and acyclo-nucleotides is tabulated below.

B1: T7: T7 DNA polymerase, which incorporates ddNTPs with very low discrimination (protein, UniProt P00581 1-704, looked up)
DNA-directed DNA polymerase: MIVSDIEANALLESVTKFHCGVIYDYSTAEYVSYRPSDFGAYLDALEAEVARGGLIVFHNGHKYDVPALTKLAKLQLNREFHLPRENCIDTLVLSRLIHSNLKDTDMGLLRSGKLPGKRFGSHALEAWGYRLGEMKGEYKDDFKRMLEEQGEEYVDGMEWWNFNEEMMDYNVQDVVVTKALLEKLLSDKHYFPPEIDFTDVGYTTFWSESLEAVDIEHRAAWLLAKQERNGFPFDTKAIEELYVELAARRSELLRKLTETFGSWYQPKGGTEMFCHPRTGKPLPKYPRIKTPKVGGIFKKPKNKAQREGREPCELDTREYVAGAPYTPVEHVVFNPSSRDHIQKKLQEAGWVPTKYTDKGAPVVDDEVLEGVRVDDPEKQAAIDLIKEYLMIQKRIGQSAEGDKAWLRYVAEDGKIHGSVNPNGAVTGRATHAFPNLAQIPGVRSPYGEQCRAAFGAEHHLDGITGKPWVQAGIDASGLELRCLAHFMARFDNGEYAHEILNGDIHTKNQIAAELPTRDNAKTFIYGFLYGAGDEKIGQIVGAGKERGKELKKKFLENTPAIAALRESIQQTLVESSQWVAGEQQVKWKRRWIKGLDGRKVHVRSPHAALNTLLQSAGALICKLWIIKTEEMLVEKGLKHGWDGDFAYMAWVHDEIQVGCRTEEIAQVVIETAQEAMRWVGDHWNFRCLLDTEGKMGPNWAICH
[1]
  Primer extension, dNTPs: 100.0%

B2: polymerase 3173: thermostable viral DNA polymerase with the amino acid sequence of SEQ ID NO:6 (protein)
chain: MGEDGLSLPKMMNTPKPILKPQPKALVEPVLCDSIDEIPAKYNEPVYFDLETDEDRPVLASIYQPHFERKVYCLNLLKEKVARFKDWLLKFSEIRGWGLDFDLRVLGYTYEQLRNKKIVDVQLAIKVQHYERFKQGGTKGEGFRLDDVARDLLGIEYPMNKTKIRETFKNNMFHSFSNEQLLYASLDAYIPHLLYEQLTSSTLNSLVYQLDQQAQKVVIETSQHGMPVKLKALEEEIHRLTQLRSEMQKQIPFNYNSPKQTAKFFGVNSSSKDVLMDLALQGNEMAKKVLEARQIEKSLAFAKDLYDIAKRSGGRIYGNFFTTTAPSGRMSCSDINLQQIPRRLRSFIGFDTEDKKLITADFPQIELRLAGVIWNEPKFIEAFRQGIDLHKLTASILFDKNIEEVSKEERQIGKSANFGLIYGIAPKGFAEYCIANGINMTEEQAYEISQKVEEVLHKDCRQHQVAYERFKYNEYVDNETWLNRTYRAWKPQDLLNYQIQGSGAELFKKAIVLLKETKPDLKIVNLVHDEIVVEADSKEAQDLAKLIKEKMEEAWDWCLEKAEEFGNRVAKIKLEVEEPHVGNTWEKP
modifications: Uncultured newly isolated virus
[2]
  3′-5′ exonuclease activity: strong
[2]; assay detects levels below 0.1% of wild-type
  nuclease activity: potent
[3]
  Km: 5.3 nM
[4]; listed as 3173
  Strand displacement: strong
[4]; listed as Polymerase 3173
  Strand displacement: displaced the nascent strand of DNA and continued DNA synthesis
Poly rA: Oligo dT
  reverse transcription in presence of manganese versus magnesium: equivalent
Poly rA: Oligo dT; 1 U enzyme, 60° C. 20 minutes (commercial enzymes per manufacturers' conditions)
  Incorporation of dTTP: 1.037 nmol
[5]; 5 units, 1 ng template, 16 hours at 55° C.
  estimated overall yield: approximately 50 μg
[5]
  amplification: up to 50,000 fold
other
  Thermostability (T1/2 at 95°): 10 min
lacIq gene
  Fidelity: 6.98 × 10^4
lacIq gene; listed as DNA polymerase 3173
  Fidelity: 6.98E+04
[6]
  Extension from nicks: strong
[6]; nicking enzyme present, 2 hours at 56° C., 200 units 3173 wt or 400 units D49A
  yields of DNA product: multi-microgram yields

B3: polymerase 3173 mutant D49A/F418Y: double mutant of polymerase 3173 with both a D49A and a F418Y mutation, SEQ ID NO:27 (protein)
chain: B2 chain with D49A, F418Y
[7]; 0.2× ddGTP:dGTP
  primer extension at 0.2× ratio of ddGTP:dGTP: nearly complete inhibition of primer extension
[7]; conclusion drawn from the extension/incorporation data
  discrimination against chain terminating nucleotides: nearly zero
Activated ct DNA
  Activity, no terminators: 100.0%
